Here are results for one substance from patent US8337813B2, “Contrast agents” (Northwestern University, priority 2007, dated 2012).

Non-standard residues stand in square brackets, D forms with d. Primed or numbered codes have the meaning given here. No end group written: not given here. *: point of attachment. DTPA′ = diethylenetriaminepentaacetic acid (Gd(III) complex) N-cap, O=C([O-])CN(CCN(CC(=O)[O-])CC(=O)[O-])CCN(CC(=O)[O-])CC(=O)*.[Gd+3]; PEG3′ = not defined here

This series concerns the target T1, human recombinant MMP-7 (Homo sapiens, UniProt P09237).
T1 sequence (P09237 95-267): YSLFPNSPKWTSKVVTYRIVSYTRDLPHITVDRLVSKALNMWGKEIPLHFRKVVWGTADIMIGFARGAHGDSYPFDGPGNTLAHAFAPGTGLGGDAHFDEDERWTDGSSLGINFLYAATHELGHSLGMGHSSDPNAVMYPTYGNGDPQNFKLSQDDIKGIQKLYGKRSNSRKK
The series can be described thus: Enzymatic cleavage by MMP-7, analysed by ESI-MS. The series is classed as biochemical. On the procedure:
During development of embodiments of the present invention, a 2 μL aliquot of human recombinant MMP-7 was thawed on ice, diluted to 50 μL with assay buffer containing 1 mM APMA, and incubated for 1 hour at 37° C. to activate the enzyme. To the activated enzyme solution was added 1 μL of a 20 mM solution of gadolinium(III)-diethylenetriaminepentaacetic acid-Ala-Pro-Leu-Ala-Leu-Trp-Ala-PEG3-Ala. The solution was incubated at 37° C. for 24 hours after which 10 μL was dissolved in 50 μL MeOH for analysis by ESI-MS.
1542.75; found negative mode 771.60, (m/2)]

Turning to “Gadolinium(III)-diethylenetriaminepentaacetic Acid-Ala-Pro-Leu-Ala-Leu-Trp-Ala-PEG3-Ala ({DTPA′}-APLALWA[PEG3′]A; also: Gd(III) complexed by DTPA)”, the “cleavage by MMP-7 (ESI-MS)” value (activated MMP-7, 37° C., 24 hours) is reported as “revealed a peak corresponding to the MMP-7 cleavage fragment Leu-Trp-Ala-PEG3-Ala”. In addition, the “ESI-MS of control solution lacking MMP-7” value (no MMP-7) is given as “revealed only the expected uncleaved”.
